Measurements from US20210244762A1 (AUTOLUS, published 2021).

Target: T1, Recombinant TGFbRII-Fc protein (R&D systems) (human, UniProt P37173 23-159)
T1 construct: Bought reagent; also called TGFβRII-Fc; TGFβRII-human Fc; not shown: Fc part; human Fc by the names 'TGFβRII-human Fc' / 'TGFbRII-hFc' and the anti-human capture kit; isotype and limits not
Experiment: SPR (Biacore 8K), TGFbRII-Fc captured by anti-human capture kit on CM5, VHH as analyte, 1:1 Langmuir fit, 25 °C
Excerpt: The binding kinetics of these four dAbs for TGFβRII was then investigated using Biacore affinity analysis and the results are shown in Table 3 below.
Recombinant TGFbRII-Fc protein (R&D systems) was immobilised on individual flow cells on a Series S CM5 sensor chip (GE Healthcare) previously functionalised with anti-human capture kit, to a density of 150-200 RU using a Biacore 8K instrument. HBS-P⁺ buffer was used as running buffer is all experimental conditions. Recombinant purified VHH antibodies at known concentrations were used as the ‘analyte’ and injected over the respective flow cells with 150 s contact time and 600s dissociation at […] of flow rate with a constant temperature of 25° C. In each experiment, flow cell 1 was unmodified and used for reference subtraction. A ‘0 concentration’ sensorgram of buffer alone was used as a double reference subtraction to factor for drift. Data were fit to a 1:1 Langmuir binding model using local Rmax.

T1 sequence (P37173 23-159 limits assumed): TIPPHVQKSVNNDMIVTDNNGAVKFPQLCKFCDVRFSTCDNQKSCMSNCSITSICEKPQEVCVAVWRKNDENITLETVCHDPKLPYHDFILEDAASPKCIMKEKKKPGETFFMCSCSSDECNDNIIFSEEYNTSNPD

B1: anti-TGFβRII single domain antibody (dAb) clone H3 (VHH)
VHH: QVQLQQSGGGLVQAGGSLRLACAASGRSFSIYGITWFRQAPGKEREFVAAITGSGLTTNYADSVKGRFTISRDNAKNMVYLQLNSLKPDDTAVYYCAATRAYSGYYGENPTRYAYWGQGTQVTVS
notes: H3 is the one clone not 'related' to the other three; also called dAb H3; anti-TGFbRII VHH H3
With B1 the Kd was 67.2 nM, the koff was 0.119 s⁻¹ and the kon was 1.77e+06 M⁻¹ s⁻¹.
